Five sequences from patent US20150258192A1, “COMPOSITIONS AND METHODS FOR PREVENTING OR TREATING CHRONIC LUNG ALLOGRAFT DYSFUNCTION (CLAD) AND IDIOPATHIC PULMONARY FIBROSIS (IPF)” (priority 2014, published 2015) can be followed below.

No end group written: not given here.

What all share (assay): Kinase Profiling Assay
Common to all, as to format: biochemical
What all share (details): peptide 100 μM

Assay [1] addresses T1, IRR(h) (Homo sapiens, UniProt P14616).
T1 construct: purchased Millipore
The method, then: (§1) Every kinase activity measurement was conducted in duplicate.
(§2) Specifically, in these assays, a positively charged substrate is phosphorylated with a radiolabeled phosphate group from an ATP if the kinase is not inhibited by an inhibitor peptide. The positively charged substrate then is attracted to a negatively charged filter membrane, quantified with a scintillation counter, and compared to a 100% activity control.
(§3) In addition to determining the IC50 of the compound, the specificity of MK2 inhibitory peptides was assessed by examining activities of all 266 human kinases available for testing in the Millipore kinase profiling service (Table 1).

For assay [2], the target named is cSRC(h) (Homo sapiens, UniProt P12931). As to the method:
as §1, §2, §3

In assay [3] the target is CDK5/p25(h) (Homo sapiens, UniProt Q00535). The method, then:
as §1, §2, §3

The target of assay [4] is Fyn(h) (Homo sapiens, UniProt P06241). The method, then:
as §1, §2, §3

For assay [5], the target named is T2, PKCμ(h) (Homo sapiens, UniProt Q15139).
T2 sequence (Q15139 1-912): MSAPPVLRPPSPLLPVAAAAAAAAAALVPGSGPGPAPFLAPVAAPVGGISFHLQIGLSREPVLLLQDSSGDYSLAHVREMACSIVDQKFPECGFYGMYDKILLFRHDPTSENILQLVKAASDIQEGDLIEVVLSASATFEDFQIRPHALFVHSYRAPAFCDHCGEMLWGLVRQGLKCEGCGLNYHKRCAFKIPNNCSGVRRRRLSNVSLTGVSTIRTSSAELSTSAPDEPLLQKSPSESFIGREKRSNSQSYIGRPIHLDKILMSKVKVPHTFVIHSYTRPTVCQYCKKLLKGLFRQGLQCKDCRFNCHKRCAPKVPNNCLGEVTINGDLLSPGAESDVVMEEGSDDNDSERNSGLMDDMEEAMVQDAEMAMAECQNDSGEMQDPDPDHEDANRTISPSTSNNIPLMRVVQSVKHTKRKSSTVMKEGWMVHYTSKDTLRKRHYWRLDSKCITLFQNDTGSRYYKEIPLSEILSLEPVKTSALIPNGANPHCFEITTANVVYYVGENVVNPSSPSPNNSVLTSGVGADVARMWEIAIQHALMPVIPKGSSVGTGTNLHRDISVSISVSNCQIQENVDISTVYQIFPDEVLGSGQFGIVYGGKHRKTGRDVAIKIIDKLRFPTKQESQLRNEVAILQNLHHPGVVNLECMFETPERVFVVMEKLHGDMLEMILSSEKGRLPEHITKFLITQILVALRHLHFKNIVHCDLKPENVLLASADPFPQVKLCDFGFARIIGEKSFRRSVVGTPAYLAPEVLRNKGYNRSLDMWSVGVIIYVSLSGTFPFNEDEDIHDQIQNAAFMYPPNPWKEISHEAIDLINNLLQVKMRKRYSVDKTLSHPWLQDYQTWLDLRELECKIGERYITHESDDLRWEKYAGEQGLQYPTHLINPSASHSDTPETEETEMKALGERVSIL
The method, then:
as §1, §2, §3

For assay [6], the target named is Flt3(h) (Homo sapiens, UniProt P36888). The method, then:
as §1, §2, §3

The target of assay [7] is T3, EphB3(h) (Homo sapiens, UniProt P54753).
T3 sequence (P54753 34-998): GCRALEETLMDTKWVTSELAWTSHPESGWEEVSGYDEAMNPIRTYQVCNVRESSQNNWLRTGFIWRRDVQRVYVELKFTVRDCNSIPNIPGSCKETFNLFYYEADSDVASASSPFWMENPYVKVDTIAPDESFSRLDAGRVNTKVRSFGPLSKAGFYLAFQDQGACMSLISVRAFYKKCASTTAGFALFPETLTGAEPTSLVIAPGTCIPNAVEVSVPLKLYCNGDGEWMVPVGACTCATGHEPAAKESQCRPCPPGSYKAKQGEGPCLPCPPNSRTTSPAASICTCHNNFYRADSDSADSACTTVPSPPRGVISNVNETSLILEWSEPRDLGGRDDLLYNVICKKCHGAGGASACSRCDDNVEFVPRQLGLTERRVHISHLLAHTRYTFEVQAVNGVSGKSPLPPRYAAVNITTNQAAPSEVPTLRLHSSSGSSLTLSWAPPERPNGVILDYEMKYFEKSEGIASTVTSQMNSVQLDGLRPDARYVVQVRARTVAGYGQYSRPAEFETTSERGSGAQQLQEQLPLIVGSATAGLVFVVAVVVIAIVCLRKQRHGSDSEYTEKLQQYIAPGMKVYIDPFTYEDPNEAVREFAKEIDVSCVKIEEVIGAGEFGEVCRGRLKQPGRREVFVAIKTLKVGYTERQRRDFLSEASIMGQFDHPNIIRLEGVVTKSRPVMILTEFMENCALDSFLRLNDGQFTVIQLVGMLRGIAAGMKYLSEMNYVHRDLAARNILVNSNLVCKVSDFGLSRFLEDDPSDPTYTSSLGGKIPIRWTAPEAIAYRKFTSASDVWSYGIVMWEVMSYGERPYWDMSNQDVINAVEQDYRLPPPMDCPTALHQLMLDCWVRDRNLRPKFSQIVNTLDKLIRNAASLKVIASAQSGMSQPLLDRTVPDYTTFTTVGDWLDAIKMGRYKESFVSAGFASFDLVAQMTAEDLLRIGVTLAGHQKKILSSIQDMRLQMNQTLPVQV
The method, then:
as §1, §2, §3

Assay [8] deals with T4, SAPK2b(h) (Homo sapiens, UniProt Q15759).
T4 construct: purchased Millipore
The method, then:
as §1, §2, §3

In assay [9] the target is Yes(h) (Homo sapiens, UniProt P07947). As to the method: as §1, §2, §3
The target of assay [10] is EphA7(h) (Homo sapiens, UniProt Q15375). The method, then:
as §1, §2, §3

Assay [11] deals with Arg(h) (Homo sapiens, UniProt P42684). As to the method:
as §1, §2, §3

Assay [12] deals with TrkA(h) (Homo sapiens, UniProt P04629). The method, then:
as §1, §2, §3

In assay [13] the target is T5, Lyn(h) (Homo sapiens, UniProt P07948).
T5 construct: purchased Millipore
As to the method: as §1, §2, §3

Assay [14] deals with FGFR3(h) (Homo sapiens, UniProt P22607). As to the method: as §1, §2, §3
Assay [15] deals with T6, MAPK1(h) (Homo sapiens, UniProt P27361).
T6 construct: purchased Millipore
As to the method: as §1, §2, §3

T1 sequence (P14616 27-1297): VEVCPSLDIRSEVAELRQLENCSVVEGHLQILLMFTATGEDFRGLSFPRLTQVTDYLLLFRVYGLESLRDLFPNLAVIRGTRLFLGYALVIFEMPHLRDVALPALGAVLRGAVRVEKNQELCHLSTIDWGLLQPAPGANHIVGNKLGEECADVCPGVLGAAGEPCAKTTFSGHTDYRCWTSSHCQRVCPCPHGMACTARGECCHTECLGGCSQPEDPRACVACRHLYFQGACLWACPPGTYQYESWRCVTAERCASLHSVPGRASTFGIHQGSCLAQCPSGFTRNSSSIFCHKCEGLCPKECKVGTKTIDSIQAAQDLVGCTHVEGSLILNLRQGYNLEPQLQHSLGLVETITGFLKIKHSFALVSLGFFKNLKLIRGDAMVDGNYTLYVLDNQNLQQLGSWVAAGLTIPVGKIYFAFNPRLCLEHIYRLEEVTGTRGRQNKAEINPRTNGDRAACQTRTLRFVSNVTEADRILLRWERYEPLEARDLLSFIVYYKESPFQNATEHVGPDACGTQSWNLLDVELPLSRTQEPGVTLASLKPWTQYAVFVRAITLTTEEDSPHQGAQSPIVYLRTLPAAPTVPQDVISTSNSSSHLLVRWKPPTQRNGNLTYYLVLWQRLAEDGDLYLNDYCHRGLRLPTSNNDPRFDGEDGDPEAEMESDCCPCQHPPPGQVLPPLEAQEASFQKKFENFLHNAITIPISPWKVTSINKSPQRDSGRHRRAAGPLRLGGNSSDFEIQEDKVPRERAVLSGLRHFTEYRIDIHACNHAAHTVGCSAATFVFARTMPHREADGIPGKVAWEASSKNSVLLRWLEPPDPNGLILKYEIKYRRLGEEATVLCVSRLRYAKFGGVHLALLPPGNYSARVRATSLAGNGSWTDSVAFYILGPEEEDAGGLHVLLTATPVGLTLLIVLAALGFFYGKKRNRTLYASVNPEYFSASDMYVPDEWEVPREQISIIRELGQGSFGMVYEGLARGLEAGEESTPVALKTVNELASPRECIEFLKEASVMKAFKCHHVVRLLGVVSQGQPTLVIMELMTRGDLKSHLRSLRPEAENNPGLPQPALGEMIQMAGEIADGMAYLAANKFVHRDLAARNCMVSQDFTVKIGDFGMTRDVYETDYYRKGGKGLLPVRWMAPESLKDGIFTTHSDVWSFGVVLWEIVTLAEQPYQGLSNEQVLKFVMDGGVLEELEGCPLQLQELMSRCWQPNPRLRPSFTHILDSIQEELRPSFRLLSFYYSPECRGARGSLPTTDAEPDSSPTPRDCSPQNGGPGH
Chain of FGFR3(h) (P22607 23-806): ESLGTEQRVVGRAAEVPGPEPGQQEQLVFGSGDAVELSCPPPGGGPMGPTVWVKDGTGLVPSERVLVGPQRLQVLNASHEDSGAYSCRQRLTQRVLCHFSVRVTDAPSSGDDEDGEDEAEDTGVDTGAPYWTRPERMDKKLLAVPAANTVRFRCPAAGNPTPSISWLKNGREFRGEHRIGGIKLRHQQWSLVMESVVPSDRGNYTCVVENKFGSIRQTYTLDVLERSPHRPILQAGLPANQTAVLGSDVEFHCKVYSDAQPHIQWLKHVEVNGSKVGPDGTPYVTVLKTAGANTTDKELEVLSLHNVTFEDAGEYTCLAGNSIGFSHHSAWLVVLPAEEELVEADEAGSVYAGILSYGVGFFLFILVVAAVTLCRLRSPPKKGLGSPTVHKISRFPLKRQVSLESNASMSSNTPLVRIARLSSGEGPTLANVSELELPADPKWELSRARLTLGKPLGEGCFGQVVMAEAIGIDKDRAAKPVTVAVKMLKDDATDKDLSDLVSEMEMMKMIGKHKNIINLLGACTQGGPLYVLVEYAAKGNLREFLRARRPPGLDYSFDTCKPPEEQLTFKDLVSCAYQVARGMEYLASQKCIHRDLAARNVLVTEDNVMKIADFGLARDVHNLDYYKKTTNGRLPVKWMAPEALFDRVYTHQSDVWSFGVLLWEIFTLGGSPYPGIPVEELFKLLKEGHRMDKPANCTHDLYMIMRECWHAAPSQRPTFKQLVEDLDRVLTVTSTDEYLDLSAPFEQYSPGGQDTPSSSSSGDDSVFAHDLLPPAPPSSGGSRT
Chain of Arg(h) (P42684 whole entry): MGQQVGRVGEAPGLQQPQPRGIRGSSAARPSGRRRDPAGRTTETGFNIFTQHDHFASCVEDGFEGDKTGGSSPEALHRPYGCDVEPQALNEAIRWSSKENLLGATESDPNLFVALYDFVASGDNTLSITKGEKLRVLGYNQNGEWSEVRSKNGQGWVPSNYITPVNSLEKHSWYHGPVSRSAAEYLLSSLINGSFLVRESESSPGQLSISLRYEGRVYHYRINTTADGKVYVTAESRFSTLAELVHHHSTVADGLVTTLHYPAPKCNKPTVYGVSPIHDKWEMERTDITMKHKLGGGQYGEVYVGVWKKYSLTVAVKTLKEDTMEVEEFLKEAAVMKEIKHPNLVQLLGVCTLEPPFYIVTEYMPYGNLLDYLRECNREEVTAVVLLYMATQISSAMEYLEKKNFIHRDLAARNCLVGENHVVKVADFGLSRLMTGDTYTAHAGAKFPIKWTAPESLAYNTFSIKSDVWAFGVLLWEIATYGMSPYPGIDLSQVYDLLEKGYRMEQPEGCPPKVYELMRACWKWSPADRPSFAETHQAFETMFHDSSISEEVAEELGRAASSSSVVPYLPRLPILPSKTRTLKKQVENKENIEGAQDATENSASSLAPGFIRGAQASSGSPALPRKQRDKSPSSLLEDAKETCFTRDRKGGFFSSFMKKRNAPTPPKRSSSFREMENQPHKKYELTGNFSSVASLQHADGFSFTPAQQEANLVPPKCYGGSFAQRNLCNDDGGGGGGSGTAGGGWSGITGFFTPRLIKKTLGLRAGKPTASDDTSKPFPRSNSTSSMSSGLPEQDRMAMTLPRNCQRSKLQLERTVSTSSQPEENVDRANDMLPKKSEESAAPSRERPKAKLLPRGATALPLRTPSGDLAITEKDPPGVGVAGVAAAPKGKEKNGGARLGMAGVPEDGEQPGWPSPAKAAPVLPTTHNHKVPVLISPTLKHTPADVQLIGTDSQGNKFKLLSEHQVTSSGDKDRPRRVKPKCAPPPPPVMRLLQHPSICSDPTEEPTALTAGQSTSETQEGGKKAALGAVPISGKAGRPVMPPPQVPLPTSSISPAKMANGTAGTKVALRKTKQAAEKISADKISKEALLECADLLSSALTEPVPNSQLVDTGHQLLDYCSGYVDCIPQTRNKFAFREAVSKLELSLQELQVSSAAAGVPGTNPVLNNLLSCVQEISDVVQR
Chain of Fyn(h) (P06241 whole entry): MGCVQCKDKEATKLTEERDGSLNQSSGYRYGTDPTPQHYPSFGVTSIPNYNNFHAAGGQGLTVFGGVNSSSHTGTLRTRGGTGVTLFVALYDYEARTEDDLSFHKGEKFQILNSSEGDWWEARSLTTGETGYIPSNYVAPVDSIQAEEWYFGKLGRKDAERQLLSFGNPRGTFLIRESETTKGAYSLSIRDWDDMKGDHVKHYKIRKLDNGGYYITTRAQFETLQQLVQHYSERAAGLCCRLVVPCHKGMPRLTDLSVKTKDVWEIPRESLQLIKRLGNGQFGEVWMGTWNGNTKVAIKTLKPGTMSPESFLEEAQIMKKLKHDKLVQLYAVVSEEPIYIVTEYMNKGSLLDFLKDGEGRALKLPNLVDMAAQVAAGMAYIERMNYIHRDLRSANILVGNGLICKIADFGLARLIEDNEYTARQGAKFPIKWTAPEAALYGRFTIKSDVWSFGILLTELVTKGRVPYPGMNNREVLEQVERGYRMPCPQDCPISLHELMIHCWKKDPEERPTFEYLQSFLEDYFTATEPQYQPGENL
T5 sequence (P07948 whole entry): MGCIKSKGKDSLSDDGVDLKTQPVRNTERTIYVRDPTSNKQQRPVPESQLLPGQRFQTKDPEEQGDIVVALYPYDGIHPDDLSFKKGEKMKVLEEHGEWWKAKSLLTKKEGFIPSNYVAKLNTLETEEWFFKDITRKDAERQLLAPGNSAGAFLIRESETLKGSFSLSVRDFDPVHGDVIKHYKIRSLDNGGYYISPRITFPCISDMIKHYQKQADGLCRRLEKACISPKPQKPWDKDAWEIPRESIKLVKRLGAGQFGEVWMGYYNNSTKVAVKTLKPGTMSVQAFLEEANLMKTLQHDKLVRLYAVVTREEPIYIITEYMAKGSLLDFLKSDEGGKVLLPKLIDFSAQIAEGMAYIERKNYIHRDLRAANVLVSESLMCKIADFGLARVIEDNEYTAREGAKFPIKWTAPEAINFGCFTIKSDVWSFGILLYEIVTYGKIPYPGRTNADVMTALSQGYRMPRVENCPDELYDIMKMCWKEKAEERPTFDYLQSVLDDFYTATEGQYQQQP
T4 sequence (Q15759 whole entry): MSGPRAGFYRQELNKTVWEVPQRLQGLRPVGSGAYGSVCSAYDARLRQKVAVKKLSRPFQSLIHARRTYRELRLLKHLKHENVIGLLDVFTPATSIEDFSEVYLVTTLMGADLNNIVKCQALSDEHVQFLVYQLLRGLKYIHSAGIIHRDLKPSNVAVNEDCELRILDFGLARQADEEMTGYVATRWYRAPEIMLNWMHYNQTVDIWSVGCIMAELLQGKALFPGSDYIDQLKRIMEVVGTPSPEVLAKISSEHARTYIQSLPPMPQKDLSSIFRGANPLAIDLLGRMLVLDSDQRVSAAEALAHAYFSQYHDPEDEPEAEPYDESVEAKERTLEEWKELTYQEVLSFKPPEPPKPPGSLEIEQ
T6 sequence (P27361 whole entry): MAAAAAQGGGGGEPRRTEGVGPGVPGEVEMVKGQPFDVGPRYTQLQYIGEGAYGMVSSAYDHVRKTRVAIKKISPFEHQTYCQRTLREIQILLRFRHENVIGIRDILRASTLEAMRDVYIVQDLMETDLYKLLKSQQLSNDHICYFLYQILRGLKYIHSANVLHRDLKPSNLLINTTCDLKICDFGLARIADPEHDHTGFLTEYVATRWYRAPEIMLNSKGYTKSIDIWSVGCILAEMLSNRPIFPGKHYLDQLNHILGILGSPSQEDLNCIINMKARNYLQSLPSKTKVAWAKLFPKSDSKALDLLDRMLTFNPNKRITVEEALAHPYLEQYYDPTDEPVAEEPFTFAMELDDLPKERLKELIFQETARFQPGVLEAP

In the case of FAKLAARLYRKALARQLGVAA [MMI-0300], the “% activity” value in assay [1] came to 8%; in assay [2], 26%; in assay [3] it was 89%; in assay [4], 74%; in assay [5] it was 22%; in assay [6], 84%. Moreover, the “% activity” value in [7] was 62%; in assay [8], 81%; in [9], 67%; in assay [10], 159%; in [11], 72%; in assay [12], 25%. Further, the “% activity” value in assay [13] came to 69%.

As for “HRRIKAWLKKIKALARQLGVAA (Mammal) [MMI-0500]”, the “% activity” value amounted to 10% in assay [1]; 10% in assay [14]; 30% in assay [2]; 66% in assay [3]; 83% in assay [4]; 10% in [5]. Besides, the “% activity” value in [6] is 17%; in assay [7] it was 79%; in [8], 42%; in [10], 189%; in assay [11], 22%; in [12], 24%. Moreover, the “% activity” value in assay [13] was found to be 31%.

As to KAFAKLAARLYRKALARQLGVAA [MMI-0400], the “% activity” value was 8% in [1]; 0% in assay [14]; 100% in [15]; 14% in assay [2]; 92% in assay [3]; 54% in [4]. Further, the “% activity” value in assay [5] worked out at 14%; in assay [6], 18%; in [7] it was 47%; in assay [8], 82%; in assay [9], 14%; in assay [10] it was 222%. Besides, the “% activity” value in assay [11] is on record as 84%; in assay [12], 17%; in [13], 3%.

With YARAAARQARAKALARQLGVAA [MMI-0100], the “% activity” value was found to be 85% in [1]; 73% in [14]; 108% in assay [15]; 79% in assay [5]; 193% in assay [10]; 74% in assay [12].

“YARAAARQARAKALNRQLGVA (Mammal) [MMI-0200]”: the “% activity” value worked out at 69% in assay [1]; 208% in assay [14]; 97% in [15]; 32% in [2]; 97% in assay [3]; 75% in assay [4]. Besides, the “% activity” value in assay [5] amounted to 73%; in assay [6] it was 99%; in [7] it was 128%; in [8], 95%; in [9] it was 93%; in [10], 220%. Also, the “% activity” value in assay [11] is recorded as 82%; in assay [13], 98%.
